The labels stand for the following.
B1: human RANKL ectodomain (residues 158-317), wild type [human] / mouse RANK extracellular domain [mouse] (parent complex)
chain 1: SKLEAQPFAHLTINATDIPSGSHKVSLSSWYHDRGWAKISNMTFSNGKLIVNQDGFYYLYANICFRHHETSGDLATEYLQLMVYVTKTSIKIPSSHTLMKGGSTKYWSGNSEFHFYSINVGGFFKLRSGEEISIEVSNPSLLDPDQDATYFGAFKVRDID
chain 2: VTPPCTQERHYEHLGRCCSRCEPGKYLSSKCTPTSDSVCLPCGPDEYLDTWNEEDKCLLHKVCDAGKALVAVDPGNHTAPRRCACTAGYHWNSDCECCRRNTECAPGFGAQHPLQLNKDTVCTPCLLGFFSDVFSSTDKCKPWTNCTLLGKLEAHQGTTESDVVCSSSMTLRRPPKEAQAYLPS

In the assay the parent is B1. Put plainly: SPR (Biacore, chelating NTA sensor chip); hRANKL or mutant injected at 0, 0.47, 0.94, 1.88, 3.75, 7.5, 15 and 30 nM; parent: 0.156 nM. (In SPR one partner is held on a chip, and binding of the other changes the refractive index at the surface.)
One may read the Kd as the concentration at which binding is half-saturated. For chain 1 SKLEAQPFAHLTINATDIPSGSHKVSLSSWYHDRGWAKISNMTFSNGKLIVNQDGFYYLYANICFAHHETSGDLATEYLQLMVYVTKTSIKIPSSHTLMKGGSTKYWSGNSEFHFYSINVGGFFKLRSGEEISIEVSNPSLLDPDQDATYFGAFKVRDID [chain 1 R66A], the equilibrium dissociation constant (Kd) is 10.7 nM.
Under chain 1 SKLEAQPFAHLTINATDIPSGSHKVSLSSWYHDRGWAKISNMTFSNGKLIVNQDGFYYLYANICFAHHETSGDLATEYLQLMVYVTKTSIKIPSSHTLMKGGSTKYWSGNSEFHFYSINVGGFFKLRSGEEISIEVSNPSLLAPDQDATYFGAFKVRDID [chain 1 R66A, chain 1 D143A] stands 39.4 nM; under chain 1 SKLEAQPFAHLTINATDIPSGSHKVSLSSWYHDRGWAKISNMTFSNGKLIVNQDGFYYLYANICFRHHETSGDLATEYLQLMVYVTKTSIKIPSSHTLMKGGSTKYWSGNSEFHFYSINVGGFFKLRSGEEISIEVSNPSLLAPDQDATYFGAFKVRDID [chain 1 D143A], 2.15 nM.

Source of the values: publication PMC4585926, “A RANKL mutant used as an inter-species vaccine for efficient immunotherapy of osteoporosis” (Scientific Reports, 2015).
